The target of this assay is PSII-ACPII monomer (one PSII core monomer with six ACPII subunits and CCPII-S) (Chroomonas placoidea (endogenous in C. placoidea T11)). In words: cryo-EM structure; single-particle cryo-EM of the native PSII-ACPII supercomplex co-purified from C. placoidea thylakoids; 25 mM Hepes-KOH pH 7.5, 1 mM CaCl2, 0.012% α-DDM; C2 symmetry, 2.47 Å overall; local refinement of the peripheral ACPIIs to 2.84 Å.

The values below come from paper PMC11133340.

As for “PSII-ACPII monomer (one PSII core monomer with six ACPII subunits and CCPII-S) (from UniProt A0A222AI37 1-351; A0A222AIE3 1-509; A0A222AI36 1-461; A0A222AI74 1-84; A0A222AI51 1-42; A0A222AIE4 1-67; A0A222AI80 1-38; A0A222AI54 1-39; A0A222AIA0 1-45; A0A222AI58 1-38; A0A222AID2 1-32; A0A222AI61 1-39; A0A222AI96 1-62; A0A222AI35 1-163) (complex)”, the stoichiometry N turned out to be 2.

As a reminder, the stoichiometry N is the number of molecules, sites or subunits per partner or assembly.
